Entries after “also recorded” stand apart in the source; their conditions may differ.
T1: FSTL1 (Homo sapiens, UniProt Q12841)
T1 sequence (Q12841 21-308): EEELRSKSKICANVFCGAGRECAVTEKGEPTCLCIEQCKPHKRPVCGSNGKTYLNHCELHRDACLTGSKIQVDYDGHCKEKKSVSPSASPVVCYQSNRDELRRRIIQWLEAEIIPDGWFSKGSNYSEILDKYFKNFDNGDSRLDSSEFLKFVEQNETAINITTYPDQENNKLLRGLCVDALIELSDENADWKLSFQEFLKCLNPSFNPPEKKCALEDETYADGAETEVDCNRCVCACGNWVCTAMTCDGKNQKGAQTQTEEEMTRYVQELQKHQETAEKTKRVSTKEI


Legend:
mouse lymphoma EL4 = assay: In vivo, mouse lymphoma EL4 (Example 23); settings: intraperitoneal 10 mg/kg on days 3 and 6, vs control antibody
Experimental: The drug efficacy of the anti-FSTL1 antibody was evaluated according to Examples 17 to 20 using mouse lymphoma EL4, which is a cancer type having enhanced FSTL1 expression.
1. Experiment Group (n=5) • 1. Mouse lymphoma EL4+control IgG (anti-DNP mAb) • 2. Mouse lymphoma EL4+anti-FSTL1 mAb (#6-55)
• Day 0: transplantation of tumor cells (1×10^6 cells subcutaneously & 1×10^6 cells intravenously) • Day 3: intraperitoneal administration of the antibody (first dose, corresponding to 200 μg/mouse=10 mg/kg) • Day 6: intraperitoneal administration of the antibody (second dose, corresponding to 200 μg/mouse=10 mg/kg) • Day 15: various immunological assays
• Effects on the growth of subcutaneous tumor (calculation of tumor volume by tumor size measurement): measured 3, 6, and 10 days after tumor implantation

[1] = tested on: GFP-positive and Snail-positive B16-F10 tumor cells; assay: In vivo, intraperitoneal administration, Snail-positive B16-F10 bone metastasis model (Example 18); parameters: species or system mouse; settings: intraperitoneal 10 mg/kg on days 5 and 10; day 14
Source text: (§1) 1. Experiment Group (n=5) • 1. No treatment (0.9% NaCl as a sham) • 2. Control IgG (anti-DNP) • 3. Anti-FSTL1 Clone #6-55 • 4. Anti-FSTL1 Clone #7-34 • 5. Anti-FSTL1 Clone #8-1 […]
(§2) • Effects on the growth of subcutaneous tumor (calculation of tumor volume by tumor size measurement): measured 7, 11, and 14 days after tumor implantation (FIG. 42B) • Effects on bone metastasis (GFP-positive tumor cells in bone marrow or the spleen) (FIGS. 42A and 42C) • Effects on MSC expansion (CD45-negative cells in bone marrow or the spleen) (FIGS. 42A and 42C) • Effects on weight loss (FIG. 42A) • Effects on the expansion of immunosuppressive Treg cells (CD4-positive and Foxp3-positive cells in the spleen) (FIG. 42C) • Other immunosuppressive properties (FIG. 42C)
(§3) In Example 17, the antibody was administered into tumor according to the purpose of “inhibiting metastasis from a primary focus to bone” as previously conducted by the present inventors. […] Specifically, antitumor effects and immunosuppression-mitigating effects were comparatively analyzed by the intraperitoneal administration (systemic administration) of the anti-FSTL1 antibody using bone metastasis models in which mouse melanoma cells (B16-F10) forced to express Snail were subcutaneously and intravenously transplanted in C57BL/6N mice. […]

[2] = tested on: GFP-positive and Snail-positive B16-F10 tumor cells; assay: Snail-positive B16-F10 bone metastasis model, intraperitoneal administration (Example 18); format: in vivo, mouse; settings: intraperitoneal 10 mg/kg on days 5 and 10; FIG. 106A
Source text: as §1
as §2, with “106B)” for “42B)”, “106A” for “42A”, “106C)” for “42C)”, “(CD45− negative” for “(CD45-negative”, “106A)” for “42A)”
as §3

FSTL1 = biological target: T1, FSTL1; assay: Inhibition of activation of tumor cells by FSTL1, RANKL- and CCR2-positive cells in human pancreatic cancer cell line Panc1 (Examples 5, 7, 9, 10, 11); format: cell-based; parameters: purchased R&D Systems, Inc. 1694-FN-050; settings: Example 9; FSTL1 20 ng/mL, antibody 10 μg/mL, 3 days

| Molecule | subcutaneous tumor growth (mouse lymphoma EL4) | effect on weight loss (mouse body weight) [1] | anti-weight loss effect [2] | inhibitory activity against the expansion of RANKL-positive cells and CCR2-positive cells (FSTL1) |
| --- | --- | --- | --- | --- |
| #6-55: chicken-mouse chimeric anti-FSTL1 antibody clone; variable regions SEQ ID NO: 783 (light), 785 (heavy) (antibody, V domains shown, mouse constant regions) VH: AVTLDESGGGLQTPGGALSLVCKGSGFTFTSVTMQWVRQAPGKGLEWVASVCSGSSTYYAPAVKGRATISRDNGQSTVRLQLSNLRPEDTGTYYCAKIAGRARWSCTSAAYNIDAWGHGTEVIVSS VL: ASTQPSSVSAIPGETVKITCSGGGNNYGWYQQRSPGSAPVTVIYYNDNRPSNIPSRFSGSTSGSTSTLTITGVQADDEAIYYCGSWDSNTDSGIFGAGTTLTVL | strongly suppressed | anti-weight loss effect | confirmed | higher inhibitory activity; also recorded: exhibited inhibitory activity |
| #5-8: chicken-mouse chimeric anti-FSTL1 antibody clone; variable regions SEQ ID NO: 771 (light), 773 (heavy) (antibody, V domains shown, mouse constant regions) VH: AVTLDESGGGLQTPGGGLSLVCKGSGFTFSSFNMFWVRQAPGKGLEWVAGIGKDGVPKYGTAVDGRATISKDNGQSTMRLQLNNLRAEDTGTYFCAKAAGGCSYDWCGIYTGDIDTWGHGTEVIVSS VL: ASTQPSSVSANPGEAVKITCSGGSGSYYGWYQQKSPGSAPVTVIYNNNQRPSDIPSRFSGSKSGSTATLTITGVQAEDEAVYFCGGYDSSTGHGGIFGAGTTLTVL |  |  |  | higher inhibitory activity; also recorded: exhibited inhibitory activity |
| #8-1: chicken-mouse chimeric anti-FSTL1 antibody clone; variable regions SEQ ID NO: 791 (light), 793 (heavy) (antibody, V domains shown, mouse constant regions) VH: AVTLDESGGGLQTPGGALSLVCKGSGFTFSSFNMFWVRQAPGKGLEWVAGIGKDGVPKYGAAVDGRATISKDNGQSTMRLQLNNLRAEDTGTYFCAKAAGGCSYDWCGIYAGDIDTWGHGTEVIVSS VL: ASTQPSSVSANPGEAVKITCSGGSGSYYGWYQQKSPGSAPVTVIYNNNQRPSDIPSRFSGSKSGSTATLTITGVQAEDEAVYFCGGYDSSSGHGGIFGAGTTLTVL |  | anti-weight loss effect | confirmed |  |

— US20180021429A1, “ANTICANCER AGENTS OR ANTIMETASTATIC AGENTS USING FSTL1 AND COMBINATION DRUG THEREOF” (PHARMA FOODS INTERNATIONAL CO., LTD., priority 2015, published 2018)
